Type in all cases: cell-based, human
Data set [1] has as its system MCF-10A cells. Put plainly: flow cytometry for EpCAM/CD49f, ALDH (Aldefluor) and CD24/CD44 after inducible lentiviral microRNA over-expression. Conditions: for ALDH-positive CSC population / CD24−CD44+ population: expression of the microRNA in MCF10A cells and several cancer cell lines. From the text: Cells were transduced with pTRIPZ-microRNA-RFP lentiviruses with inducible systems and selected with puromycin, and microRNAs were induced with or without (CONTROL) Doxycycline and analyzed for RFP, EpCAM and CD49f.
(§1) Furthermore, forced over-expression of mir-100 or mir-221 increased the proportion of EpCAM^−CD49f^+ cells in non-transformed MCF-10A cells as well as primary normal human mammary cells isolated from reduction mammoplasty specimens. […] This was followed by an EMT/MET transition in the Aldefluor-positive CSC population. Since TGFβ is a major regulator of EMT, abrogation of this signaling pathway may facilitate MET.
Of interest, it has been recently reported that the mir106b-25 cluster including mir-93 is induced in the early stages of nuclear reprogramming of fibroblasts into IPS cells. This is accompanied by an EMT to MET conversion in these cells which is obligatory for reprogramming to occur.
(§2) A TET on/off inducible system was established to over-express microRNAs in a lentiviral vector tagged with RFP. Utilizing this system, it was shown that forced over-expression of mir-93 increases the proportion of EpCAM^+CD49f^+ and ALDH^+ cells (FIG. 5). […] Furthermore, forced over-expression of mir-100 increased the proportion of EpCAM^−CD49f^+ cells (FIG. 5).

Data set [2] relates to SUM159 cells. Put plainly: induction of MET and EMT/MET marker expression in the ALDH-positive CSC population after mir-93 induction. Conditions: induction of the microRNA in EMT SUM159 cells.
Text: as §1, §2

Data set [3] deals with SUM159 cells. Put plainly: in vitro matrigel invasion assay. The conditions noted are these: microRNA induced with Doxycycline vs control; serum as attractant. On the procedure: The invasive capability of pTRIPZ-mir-93-RFP cells or pTRIPZ-mir-100-RFP cells with or without (CONTROL) Doxycycline was assessed by matrigel invasion assay. […] were plated in Matrigel and serum was utilized as the attractant.
as §2
Assays were done in triplicate in invasion chambers pre-coated with reduced growth factor matrix from BD Biosciences. Cells were added to the upper chamber in […] of serum-free medium. For the invasion assay, 20,000 cancer cells were seeded on the coated chamber, and the lower chamber was filled with […] of medium (Cambrex) with FBS. After 37 hours of incubation, the cells on the underside of the upper chambers were stained with the blue stain in the Cell Invasion Assay Kit (Chemicon; cat. #ECM550) and counted using light microscopy.

For data set [4], the system named is TGFβR2. Nature of the data set: TGFβ signaling after mir-93 induction. Conditions: by targeting TGFβR2; effect seen within twelve hours of induction.
Text: as §1

The mark [5] stands for this setting: forced over-expression of the microRNA.
[6] abbreviates: forced over-expression of the microRNA, MCF-10A and primary normal human mammary cells.

B1: mir-93: microRNA (SEQ ID NO:1) over-expressed from a doxycycline-inducible pTRIPZ lentiviral vector tagged with RFP (nucleic acid, listed as Homo sapiens)
chain: CTGGGGGCTCCAAAGTGCTGTTCGTGCAGGTAGTGTGATTACCCAACCTACTGCTGAGCTAGCACTTCCCGAGCCCCCGG
B1: the “proportion of EpCAM+CD49f+ and ALDH+ cells” value in data set [1] (forced over-expression of the microRNA (TET inducible lentiviral vector), MCF-10A and primary normal human mammary cells) was “increases”. For the same molecule, the “MET in the ALDH-positive CSC population” value in data set [2] was “induces an MET”. In addition, in data set [2] (ALDH-positive CSC population), the “expression of E-Cadherin and Claudin” value was “increased expression”; the “expression of mesenchymal genes (vimentin, N-Cadherin, Twist)” value is reported as “down-regulation”. Also, the cell invasion entry in data set [3] was “decreased cell invasion”. Besides, in data set [4], the TGFβ signaling entry is “inhibits TGFβ signaling”.

B2: mir-100: microRNA (SEQ ID NO:2) over-expressed from a doxycycline-inducible pTRIPZ lentiviral vector tagged with RFP (nucleic acid, listed as Homo sapiens)
chain: CCTGTTGCCACAAACCCGTAGATCCGAACTTGTGGTATTAGTCCGCACAAGCTTGTATCTATAGGTATGTGTCTGTTAGG
For B2, in data set [1], the “ALDH-positive CSC population” value is on record as “decrease” and the “CD24−CD44+ population” value is “increase”. In data set [1] (setting [5]), the “ALDH+ CSC population” value is given as “decrease” and the “proportion of CD24−CD44+ CSC cells” value is given as “increase”. Further, the “proportion of EpCAM−CD49f+ cells” value in data set [1] (setting [6]) is “increased”. Further, in data set [3], the cell invasion entry was “increased cell invasion”.

B3: mir-221: microRNA (SEQ ID NO:3), forced over-expression in mammary cells (nucleic acid, listed as Homo sapiens)
chain: TGAACATCCAGGTCTGGGGCATGAACCTGGCATACAATGTAGATTTCTGTGTTCGTTAGGCAACAGCTACATTGTCTGCTGGGTTTCAGGCTACCTGGAAACATGTTCTC
As to B3, in data set [1], the “ALDH-positive CSC population” value is “decrease” and the “CD24−CD44+ population” value is listed as “increase”. Further, the “proportion of EpCAM−CD49f+ cells” value in data set [1] (setting [6]) is recorded as “increased”.

These data come from patent US9352039B2, “Method of reducing the number of EMT and MET type breast cancer stem cells” (The Regents of the University of Michigan, priority 2012, dated 2016).
